Test results as given in patent publication US20250076311A1 (Chugai, published 2025).

T1: human FcγRIIb extracellular domain, His-tagged (human, UniProt P31994 43-217)
T1 construct: also called human FcgRIIb
T1 sequence: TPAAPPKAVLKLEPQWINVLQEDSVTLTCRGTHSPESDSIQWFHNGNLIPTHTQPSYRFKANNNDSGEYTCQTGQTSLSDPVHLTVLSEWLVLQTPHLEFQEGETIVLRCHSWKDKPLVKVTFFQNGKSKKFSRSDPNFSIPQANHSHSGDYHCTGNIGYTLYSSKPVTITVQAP

T2: human FcγRIIaH extracellular domain, His-tagged (human, UniProt P12318 34-217)
T2 construct: also called human FcgRIIaH; FcγRIIa type H
T2 sequence: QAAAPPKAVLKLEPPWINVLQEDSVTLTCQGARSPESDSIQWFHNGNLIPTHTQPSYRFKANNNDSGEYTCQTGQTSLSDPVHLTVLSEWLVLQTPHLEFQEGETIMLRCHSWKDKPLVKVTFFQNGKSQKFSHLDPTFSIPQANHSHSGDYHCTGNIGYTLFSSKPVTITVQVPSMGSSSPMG


Assays:
Experiment in all cases: SPR (Biacore), 25C, FcgR bound per antibody captured
[1] = target: T1, human FcγRIIb extracellular domain, …
[2] = target: T2, human FcγRIIaH extracellular domain, …
[3] = target: T3, human FcγRIIIaV extracellular domain, His-tagged (human, UniProt P08637 17-208)
T3 construct: also called human FcgRIIIaV
T3 sequence (P08637 17-208 F176V): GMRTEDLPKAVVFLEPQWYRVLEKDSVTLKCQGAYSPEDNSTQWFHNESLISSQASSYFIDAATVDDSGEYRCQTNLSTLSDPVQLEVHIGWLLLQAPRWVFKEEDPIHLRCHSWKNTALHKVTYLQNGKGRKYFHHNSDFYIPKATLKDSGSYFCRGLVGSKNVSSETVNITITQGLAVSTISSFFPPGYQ

| Binding to human FcgRs (parent B3 = 100) [1] | Binding to human FcgRs (parent B3 = 100) [2] | Binding to human FcgRs (parent B3 = 100) [3] | Binder |
| --- | --- | --- | --- |
| 61 | 49 | -1 | GpH7-B3 S239P / GpL16-k0 (antibody, human IgG1, kappa, also called B3 variant S239P) heavy: not shown light: DIVMTQSPLSLPVTPGEPASISCQASESLVHSNRNTYLHWYLQKPGQSPQLLIYKVSNRFSGVPDRFSGSGSGTDFTLKISRVEAEDVGVYYCSQNTHVPPTFGQGTKVEIERTVAAPSVFIFPPSDEQLKSGTASVVCLLNNFYPREAKVQWKVDNALQSGNSQESVTEQDSKDSTYSLSSTLTLSKADYEKHKVYACEVTHQGLSSPVTKSFNRGEC |
| 88 |  | 2 | GpH7-B3 V266F / GpL16-k0 (antibody, human IgG1, kappa, also called B3 variant V266F) heavy: not shown light: DIVMTQSPLSLPVTPGEPASISCQASESLVHSNRNTYLHWYLQKPGQSPQLLIYKVSNRFSGVPDRFSGSGSGTDFTLKISRVEAEDVGVYYCSQNTHVPPTFGQGTKVEIERTVAAPSVFIFPPSDEQLKSGTASVVCLLNNFYPREAKVQWKVDNALQSGNSQESVTEQDSKDSTYSLSSTLTLSKADYEKHKVYACEVTHQGLSSPVTKSFNRGEC |

Further lines, the binder ahead of its results:

| Binder | Binding to human FcgRs (parent B3 = 100) [1] | Binding to human FcgRs (parent B3 = 100) [2] | Binding to human FcgRs (parent B3 = 100) [3] |
| --- | --- | --- | --- |
| GpH7-B3 N325F / GpL16-k0 (antibody, human IgG1, kappa, also called B3 variant N325F) heavy: not shown light: DIVMTQSPLSLPVTPGEPASISCQASESLVHSNRNTYLHWYLQKPGQSPQLLIYKVSNRFSGVPDRFSGSGSGTDFTLKISRVEAEDVGVYYCSQNTHVPPTFGQGTKVEIERTVAAPSVFIFPPSDEQLKSGTASVVCLLNNFYPREAKVQWKVDNALQSGNSQESVTEQDSKDSTYSLSSTLTLSKADYEKHKVYACEVTHQGLSSPVTKSFNRGEC | 72 | 65 | -1 |
| GpH7-B3 P238Y / GpL16-k0 (antibody, human IgG1, kappa, also called B3 variant P238Y) heavy: not shown light: DIVMTQSPLSLPVTPGEPASISCQASESLVHSNRNTYLHWYLQKPGQSPQLLIYKVSNRFSGVPDRFSGSGSGTDFTLKISRVEAEDVGVYYCSQNTHVPPTFGQGTKVEIERTVAAPSVFIFPPSDEQLKSGTASVVCLLNNFYPREAKVQWKVDNALQSGNSQESVTEQDSKDSTYSLSSTLTLSKADYEKHKVYACEVTHQGLSSPVTKSFNRGEC | 114 | 93 | 3 |
